Results reported in patent US20110123544A1 (published 2011).

T1: recombinant human IL-12 (rhIL-12) (human, UniProt P29459 23-219; P29460 23-328)
T1 chain 1: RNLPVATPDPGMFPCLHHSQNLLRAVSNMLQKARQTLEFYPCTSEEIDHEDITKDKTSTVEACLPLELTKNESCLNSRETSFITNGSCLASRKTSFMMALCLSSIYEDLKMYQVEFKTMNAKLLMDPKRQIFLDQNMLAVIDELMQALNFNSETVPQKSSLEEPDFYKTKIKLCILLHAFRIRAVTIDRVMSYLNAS
T1 chain 2: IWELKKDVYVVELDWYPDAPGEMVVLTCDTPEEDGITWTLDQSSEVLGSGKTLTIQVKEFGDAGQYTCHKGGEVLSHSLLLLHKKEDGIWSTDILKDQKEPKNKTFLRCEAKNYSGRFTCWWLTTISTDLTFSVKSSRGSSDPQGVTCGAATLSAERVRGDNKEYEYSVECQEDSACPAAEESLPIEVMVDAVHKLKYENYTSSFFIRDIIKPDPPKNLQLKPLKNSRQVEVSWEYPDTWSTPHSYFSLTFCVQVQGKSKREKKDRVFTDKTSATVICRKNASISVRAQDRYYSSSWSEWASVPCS

T2: recombinant human interleukin 12 (p40/p35 heterodimer) (human, UniProt P29460 23-328; P29459 23-219)
T2 chain 1: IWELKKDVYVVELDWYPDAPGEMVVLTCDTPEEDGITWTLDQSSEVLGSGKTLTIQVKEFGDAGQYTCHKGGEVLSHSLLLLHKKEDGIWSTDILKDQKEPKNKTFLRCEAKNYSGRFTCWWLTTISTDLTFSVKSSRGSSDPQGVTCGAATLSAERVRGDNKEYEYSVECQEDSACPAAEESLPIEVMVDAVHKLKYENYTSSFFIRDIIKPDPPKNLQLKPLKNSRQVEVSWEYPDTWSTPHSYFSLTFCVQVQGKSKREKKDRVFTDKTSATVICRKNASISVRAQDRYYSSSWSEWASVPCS
T2 chain 2: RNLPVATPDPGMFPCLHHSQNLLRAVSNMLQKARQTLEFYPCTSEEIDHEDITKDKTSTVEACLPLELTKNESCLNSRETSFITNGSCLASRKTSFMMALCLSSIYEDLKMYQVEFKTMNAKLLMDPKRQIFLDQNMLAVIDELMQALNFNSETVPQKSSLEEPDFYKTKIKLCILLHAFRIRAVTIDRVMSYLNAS


Molecular target: T1, recombinant human IL-12 (rhIL-12)
Experiment: BIAcore

| koff | Binder |
| --- | --- |
| 9.7e-05 s⁻¹ | SGGRSNIGSITVK [Y61 L31 I] |
| 0.000483 s⁻¹ | SGGRSNIGYNTVK [Y61 L30 Y] |
| 0.00247 s⁻¹ | SGGRSNIGSNQVK [Y61 L32 Q] |
| 0.000315 s⁻¹ | SGGRSNIGSHTVK [Y61 L31 H] |
| 0.00191 s⁻¹ | SGGRSNIGSNSVK [Y61 L32 S] |
| 0.00381 s⁻¹ | SGGRSNIGSNCVK [Y61 L32 C] |
| 0.000318 s⁻¹ | SGGRSNIGSNKVK [Y61 L32 K] |
| 0.000424 s⁻¹ | SGGRSNIGSNPVK [Y61 L32 P] |
| 0.000366 s⁻¹ | SGGRSNIGSGTVK [Y61 L31 G] |
| 0.00191 s⁻¹ | SGGRSNIGSNAVK [Y61 L32 A] |
| 0.00215 s⁻¹ | SGGRSNIGSNLVK [Y61 L32 L] |
| 0.000166 s⁻¹ | SGGRSNIGNNTVK [Y61 L30 N] |

Molecular target: T2, recombinant human interleukin 12 …
Experiment: BIAcore

| koff | Binder |
| --- | --- |
| 0.00224 s⁻¹ | HGRHDN [Y61 H97 R] |
| 0.00239 s⁻¹ | HGWHDN [Y61 H97 W] |
| 0.000688 s⁻¹ | HGSFDN [Y61 H98 F] |

Molecular target: T1, recombinant human IL-12 (rhIL-12)
Experiment: BIAcore
Remark: another data set of the same source

| Binder | koff |
| --- | --- |
| QSYTRGTHPALL [Y61 L92 T] | 0.000408 s⁻¹ |
| QSYDVGTHPALL [Y61 L93 V] | 0.000269 s⁻¹ |
| QSYDTGTHPALL [Y61 L93 T] | 0.000316 s⁻¹ |
| QSYFRGTHPALL [Y61 L92 F] | 0.000449 s⁻¹ |
| QSYDRLTHPALL [Y61 L94 L] | 0.000244 s⁻¹ |
| QSYDPGTHPALL [Y61 L93 P] | 0.000349 s⁻¹ |
| QSYYRGTHPALL [Y61 L92 Y] | 0.000511 s⁻¹ |
| QSYDRDTHPALL [Y61 L94 D] | 0.000253 s⁻¹ |
| QSYSRGTHPALL [Y61 L92 S] | 0.000307 s⁻¹ |
| QSYDQGTHPALL [Y61 L93 Q] | 0.0003 s⁻¹ |
| QSYDRWTHPALL [Y61 L94 W] | 0.000293 s⁻¹ |
| QSYQRGTHPALL [Y61 L92 Q] | 0.000427 s⁻¹ |
| QSYDRTTHPALL [Y61 L94 T] | 0.000305 s⁻¹ |
| QSYDAGTHPALL [Y61 L93 A] | 0.00031 s⁻¹ |
| QSYDRQTHPALL [Y61 L94 Q] | 0.00025 s⁻¹ |
| QSYDWGTHPALL [Y61 L93 W] | 0.000349 s⁻¹ |
| QSYIRGTHPALL [Y61 L92 I] | 0.000618 s⁻¹ |
| QSYGRGTHPALL [Y61 L92 G] | 0.000349 s⁻¹ |
| QSYDRITHPALL [Y61 L94 I] | 0.000276 s⁻¹ |
| QSYLRGTHPALL [Y61 L92 L] | 0.000728 s⁻¹ |
| QSYDRRTHPALL [Y61 L94 R] | 0.000231 s⁻¹ |
| QSYDGGTHPALL [Y61 L93 G] | 0.000392 s⁻¹ |
| QSYDCGTHPALL [Y61 L93 C] | 0.00032 s⁻¹ |
| QSYDRCTHPALL [Y61 L94 C] | 0.00052 s⁻¹ |

Now from value to binder:

| koff | Binder |
| --- | --- |
| 0.000526 s⁻¹ | QSYDRATHPALL [Y61 L94 A] |
| 0.000341 s⁻¹ | QSYDSGTHPALL [Y61 L93 S] |
| 0.000347 s⁻¹ | QSYNRGTHPALL [Y61 L92 N] |
| 0.000287 s⁻¹ | QSYDRSTHPALL [Y61 L94 S] |
| 0.000332 s⁻¹ | QSYDRPTHPALL [Y61 L94 P] |
| 0.000316 s⁻¹ | QSYDNGTHPALL [Y61 L93 N] |
| 0.000453 s⁻¹ | QSYCRGTHPALL [Y61 L92 C] |
| 0.000343 s⁻¹ | QSYDDGTHPALL [Y61 L93 D] |
| 0.000295 s⁻¹ | QSYDIGTHPALL [Y61 L93 I] |
| 0.000187 s⁻¹ | QSYDRHTHPALL [Y61 L94 H] |
| 0.000275 s⁻¹ | QSYDMGTHPALL [Y61 L93 M] |
| 0.000357 s⁻¹ | QSYARGTHPALL [Y61 L92 A] |
| 0.000335 s⁻¹ | QSYDYGTHPALL [Y61 L93 Y] |
| 0.000351 s⁻¹ | QSYDRVTHPALL [Y61 L94 V] |
| 0.0003 s⁻¹ | QSYDLGTHPALL [Y61 L93 L] |
| 0.00072 s⁻¹ | QSYWRGTHPALL [Y61 L92 W] |
